According to patent US20240317834A1, “COMPOSITIONS AND METHODS FOR NEUROLOGICAL DISEASES” (CODA BIOTHERAPEUTICS, INC., priority 2020, published 2024):

Tested on: Lenti-X 293T cells
Test: YFP fluorescence quenching anion reporter plate reader assay of engineered receptors stimulated with acetylcholine or a non-native ligand
Assay type: cell-based
Details: for percent quench of YFP fluorescence, 10 uM ach: acetylcholine 10 uM; for percent quench of YFP fluorescence, 100 uM ach: acetylcholine 100 uM; for percent quench of YFP fluorescence, 1 mM ach: acetylcholine 1 mM; for percent quench of YFP fluorescence, 3 mM ach: acetylcholine 3 mM
Source text: To screen these mutant LGICs for those having novel response profiles to ligands, an anion reporter assay was developed to assess the function of the LGICs in a high throughput format. In this assay, cells expressing a YFP reporter whose fluorescence is quenched in the presence of anion are transfected with DNA encoding the channel of interest. Upon exposure to ligand, channels that are activated will flux anion, resulting in a dose-dependent quench of the YFP that can be detected on a plate reader. The greater the quench signal (i.e., the more positive the value), the higher the ligand activity on the receptor is.
Lenti-X 293T cells (LX293T, Clontech) were maintained in DMEM containing 10% FBS and 1% penicillin/streptomycin (Invitrogen). […] Two days before assay, cells were split at a density of 20,000 cells/well in a 96-well tissue culture plate coated with poly-d lysine (Thermo Scientific). The next day, the cells were transiently transfected with 0.1 μg of DNA per well using standard Fugene protocol (Promega). On the day of assay, cells were washed 2 times in 1× extracellular solution (1×ECS: 140 mM NaCl, 5 mM KCl, 1 mM MgCl2, 2 mM CaCl2), 10 mM HEPES, 10 mM glucose, pH 7.2, mOsms 300). After the last wash, 100 μL of 1×ECS was added to the wells and the plate was incubated at 37° C. for 30 min. While incubating the plate, the drugs were diluted to a 2× concentration in 1×ECS-NaI (same components as 1×ECS except the 140 mM NaCl was replaced by 140 mM NaI). The plates were then read on a Flexstation3 (Molecular Devices). Each well, 8 wells at a time, of the plate is read for 2 min using a Flexstation3 (Molecular Devices) as follows: 1) a baseline YFP fluorescence is read for 17 sec, 2) 100 μL of ligand is added, and 3) the changes in YFP fluorescence are then measured every 1.3 sec for 1 minute and 43 seconds. The percent quench is calculated from the average fluorescence of the last 10 seconds of the read divided by the baseline average of the first 15 seconds prior to the ligand addition.
FIGS. 1A-1J provide heat maps of the percent quench of YFP fluorescence following stimulation by various doses of either acetylcholine or the non-native ligand as indicated in the Figures. CODA71 (SEQ ID NO: 33) was used as a control, and CODA75 (SEQ ID NO: 29, a non-responding chimeric engineered receptor) was used as the negative control. Quenching of the fluorescence signal, as indicated by blue shaded cells, indicate the level of engineered receptor activation by the non-native ligand at that concentration.

B1: CODA282: engineered chimeric LGIC receptor, Y115D in SEQ ID NO: 33 (protein)
chain: MRCSPGGVWLALAASLLHVSLQGEFQRKLYKELVKNYNPLERPVANDSQPLTVYFSLSLLQIMDVDEKNQVLTTNIWLQMSWTDHYLQWNVSEYPGVKTVRFPDGQIWKPDILLDNSADERFDATFHTNVLVNSSGHCQYLPPGIFKSSCPMDLKNFPMDVQTCKLKFGSWSYGGWSLDLQMQEADISGYIPNGEWDLVGIPGKRSERFYECCKEPYPDVTFTVTMRRRMGYYLIQMYIPSLLIVILSWISFWINMDAAPARVGLGITTVLTMTTQSSGSRASLPKVSYVKAIDIWMAVCLLFVFSALLEYAAVNFVSRQHKELLRFRRKRRHHKSPMLNLFQEDEAGEGRFNFSAYGMGPACLQAKDGISVKGANNSNTTNPPPAPSKSPEEMRKLFIQRAKKIDKISRIGFPMAFLIFNMFYWIIYKIVRREDVHNQ
modifications: synthetic sequence of chimeric LGIC
YFP fluorescence quenching using CNL001 (1 nM CNL001, first column): −15.837% | YFP fluorescence quenching using CNL001 (1 nM CNL001, second column): −6.519% | YFP fluorescence quenching using TC-5619/Bradanicline (1 nM brd): −0.54% | YFP fluorescence quenching using TC-5619/Bradanicline (3 nM brd): −7.22% | YFP fluorescence quenching using Varenicline (3 nM var, first column): 2.111 | YFP fluorescence quenching using Varenicline (3 nM var, second column): −12.265 | YFP fluorescence quenching using CNL001 (10 nM CNL001, first column): −4.862% | YFP fluorescence quenching using CNL001 (10 nM CNL001, second column): −8.244% | YFP fluorescence quenching using TC-5619/Bradanicline (10 nM brd): −2.82% | YFP fluorescence quenching using TC-5619/Bradanicline (30 nM brd): −16.67% | YFP fluorescence quenching using Facinicline (30 nM fac): 10.17 | YFP fluorescence quenching using Varenicline (30 nM var, first column): −4.433 | YFP fluorescence quenching using Varenicline (30 nM var, second column): −6.153 | YFP fluorescence quenching using CNL001 (50 nM CNL001, first column): −3.807% | YFP fluorescence quenching using CNL001 (50 nM CNL001, second column): −2.871% | YFP fluorescence quenching using ABT-126 (50 nM abt): −21.22% | YFP fluorescence quenching using CNL001 (100 nM CNL001, first column): −7.924% | YFP fluorescence quenching using CNL001 (100 nM CNL001, second column): 2.11% | YFP fluorescence quenching using CNL002 (100 nM CNL002): −9.7% | YFP fluorescence quenching using ABT-126 (100 nM abt): −19.7% | YFP fluorescence quenching using AZD-0328 (100 nM azd0328): 3.19% | YFP fluorescence quenching using TC-5619/Bradanicline (100 nM brd): −0.02% | YFP fluorescence quenching using Facinicline (100 nM fac): 24.77 | YFP fluorescence quenching using ABT-126 (300 nM abt): −15.55% | YFP fluorescence quenching using AZD-0328 (300 nM azd0328): 4.79% | YFP fluorescence quenching using TC-5619/Bradanicline (300 nM brd): −12.37% | YFP fluorescence quenching using Facinicline (300 nM fac): 51.04 | YFP fluorescence quenching using Varenicline (300 nM var, first column): −0.861 | YFP fluorescence quenching using Varenicline (300 nM var, second column): −1.308 | YFP fluorescence quenching using Varenicline (500 nM var, first column): 0.733 | YFP fluorescence quenching using Varenicline (500 nM var, second column): −4.633 | YFP fluorescence quenching using CNL001 (1 uM CNL001, first column): 11.047% | YFP fluorescence quenching using CNL001 (1 uM CNL001, second column): 8.04% | YFP fluorescence quenching using CNL002 (1 uM CNL002): −8.37% | YFP fluorescence quenching using ABT-126 (1 uM abt): −14.31% | YFP fluorescence quenching using TC-5619/Bradanicline (1 uM brd): 31.23% | YFP fluorescence quenching using TC-6987 (1 uM tc6987): 13.01 | YFP fluorescence quenching using Varenicline (1 uM var, first column): −4.512 | YFP fluorescence quenching using Varenicline (1 uM var, second column): 0.02 | YFP fluorescence quenching using Facinicline (10 uM fac): 79.76 | YFP fluorescence quenching using TC-6987 (10 uM tc6987): 14.73 | YFP fluorescence quenching using CNL002 (30 uM CNL002): 3.4% | YFP fluorescence quenching using AZD-0328 (30 uM azd0328): 76.78% | YFP fluorescence quenching using Facinicline (30 uM fac): 81.7 | YFP fluorescence quenching using TC-6987 (500 uM tc6987): 14.29 | percent quench of YFP fluorescence, 30 nM TC-6683 (TC-6683 30 nM): 0.365% | percent quench of YFP fluorescence, 300 nM TC-6683 (TC-6683 300 nM): −6.865% | percent quench of YFP fluorescence, 3 uM TC-6683 (TC-6683 3 uM): −4.927% | percent quench of YFP fluorescence, 30 uM TC-6683 (TC-6683 30 uM): −11.259% | percent quench of YFP fluorescence, 100 uM TC-6683 (TC-6683 100 uM): −11.894% | percent quench of YFP fluorescence, 10 uM ach: 6.81% | percent quench of YFP fluorescence, 100 uM ach: 1.19% | percent quench of YFP fluorescence, 1 mM ach: −14.05% | percent quench of YFP fluorescence, 3 mM ach: 2.37%

B2: CODA283: engineered chimeric LGIC receptor, Y115E_N379K in SEQ ID NO: 33 (protein)
chain: MRCSPGGVWLALAASLLHVSLQGEFQRKLYKELVKNYNPLERPVANDSQPLTVYFSLSLLQIMDVDEKNQVLTTNIWLQMSWTDHYLQWNVSEYPGVKTVRFPDGQIWKPDILLENSADERFDATFHTNVLVNSSGHCQYLPPGIFKSSCPMDLKNFPMDVQTCKLKFGSWSYGGWSLDLQMQEADISGYIPNGEWDLVGIPGKRSERFYECCKEPYPDVTFTVTMRRRMGYYLIQMYIPSLLIVILSWISFWINMDAAPARVGLGITTVLTMTTQSSGSRASLPKVSYVKAIDIWMAVCLLFVFSALLEYAAVNFVSRQHKELLRFRRKRRHHKSPMLNLFQEDEAGEGRFNFSAYGMGPACLQAKDGISVKGANNSKTTNPPPAPSKSPEEMRKLFIQRAKKIDKISRIGFPMAFLIFNMFYWIIYKIVRREDVHNQ
modifications: synthetic sequence of chimeric LGIC
YFP fluorescence quenching using CNL001 (1 nM CNL001, first column): −0.713% | YFP fluorescence quenching using CNL001 (1 nM CNL001, second column): −0.621% | YFP fluorescence quenching using TC-5619/Bradanicline (1 nM brd): 0.59% | YFP fluorescence quenching using TC-5619/Bradanicline (3 nM brd): −6.41% | YFP fluorescence quenching using CNL001 (10 nM CNL001, first column): 7.739% | YFP fluorescence quenching using CNL001 (10 nM CNL001, second column): 15.277% | YFP fluorescence quenching using TC-5619/Bradanicline (10 nM brd): −1.58% | YFP fluorescence quenching using TC-5619/Bradanicline (30 nM brd): −14.24% | YFP fluorescence quenching using Facinicline (30 nM fac): 6.39 | YFP fluorescence quenching using CNL001 (50 nM CNL001, first column): 19.489% | YFP fluorescence quenching using CNL001 (50 nM CNL001, second column): 33.703% | YFP fluorescence quenching using ABT-126 (50 nM abt): −22.65% | YFP fluorescence quenching using CNL001 (100 nM CNL001, first column): 56.886% | YFP fluorescence quenching using CNL001 (100 nM CNL001, second column): 60.171% | YFP fluorescence quenching using CNL002 (100 nM CNL002): −5.81% | YFP fluorescence quenching using ABT-126 (100 nM abt): −20.55% | YFP fluorescence quenching using AZD-0328 (100 nM azd0328): −2.1% | YFP fluorescence quenching using TC-5619/Bradanicline (100 nM brd): 33.36% | YFP fluorescence quenching using ABT-126 (300 nM abt): −12.93% | YFP fluorescence quenching using AZD-0328 (300 nM azd0328): 38.2% | YFP fluorescence quenching using TC-5619/Bradanicline (300 nM brd): 43.81% | YFP fluorescence quenching using Facinicline (300 nM fac): 78.36 | YFP fluorescence quenching using CNL001 (1 uM CNL001, first column): 69.836% | YFP fluorescence quenching using CNL001 (1 uM CNL001, second column): 73.855% | YFP fluorescence quenching using CNL002 (1 uM CNL002): 9.69% | YFP fluorescence quenching using ABT-126 (1 uM abt): 1.71% | YFP fluorescence quenching using TC-5619/Bradanicline (1 uM brd): 75.39% | YFP fluorescence quenching using TC-6987 (1 uM tc6987): −9.54 | YFP fluorescence quenching using Facinicline (10 uM fac): 81.93 | YFP fluorescence quenching using TC-6987 (10 uM tc6987): −7.06 | YFP fluorescence quenching using CNL002 (30 uM CNL002): −12.85% | YFP fluorescence quenching using AZD-0328 (30 uM azd0328): 79.44% | YFP fluorescence quenching using Facinicline (30 uM fac): 78.63 | YFP fluorescence quenching using TC-6987 (500 uM tc6987): −15.15 | percent quench of YFP fluorescence, 10 uM ach: −6.16% | percent quench of YFP fluorescence, 100 uM ach: −11.12% | percent quench of YFP fluorescence, 1 mM ach: −2.74% | percent quench of YFP fluorescence, 3 mM ach: 53.61%
